# Test results taken from US20230071422A1 (BEIJING WISDOMAB BIOTECHNOLOGY, published 2023).
# Columns and labels:
# [1] = biological target: T1, CD123 on the surface of CD123-positive cells (KG-1a, MV-4-11) (human, UniProt P26951 19-378); assay: flow cytometry on MV-4-11 cells, titration from 100 nM, goat anti-human IgG-FITC
# T1 construct: whole, on cells; Endogenous CD123 on KG-1a (human acute myeloid leukemia) and MV-4-11 (human acute monocytic leukemia) cells; also called cell surface CD123 antigen; CD123 on the surface of MV-4-11 cells
# Description: MV-4-11 cells at the logarithmic phase of growth were used and resuspended to 2×10⁶ […] with PBS buffer containing 1% BSA after centrifugation. MV-4-11 cells were plated in a 96-well V-bottom plate at 100 μL/well, and the supernatant was removed after centrifugation. […] The antibodies were added to the wells containing cells and incubated at 4° C. for 1 hour. Then, the plate was washed three times with 200 μL PBS buffer. The goat anti-human IgG-FITC secondary antibody (ZF-0308, ZSGB-BIO) was added to the wells (100 μL/well), and incubated at 4° C. for 30 minutes in the dark. Then, the cells were washed three times with 200 μL of PBS buffer, and resuspended in 100 μL of PBS buffer to detect FITC channel by flow cytometer (ACEA, Novocyte).
# [2] = biological target: T2, extracellular region of human CD3E with C-terminal His tag (hCD3E-his) (human (Homo sapiens), UniProt P07766 23-126); assay: SPR, Biacore X100; antibody captured by anti-human IgG (Fc), hCD3E-his as analyte, 1:1 model
# T2 construct: Recombinant, expressed in HEK293 cells
# Description: (§1) The chip surface was regenerated by injecting 3M MgCl₂ solution at 10 μL/min for 30 s. Association rates (Kₒₙ) and dissociation rates (Koff) were calculated from association and dissociation sensorgrams fitted by a 1:1 binding model using Biacore X100 evaluation software version 2.0.1. The dissociation equilibrium constant (KD) was calculated as the ratio Koff/Kₒₙ.
# [3] = biological target: T3, extracellular region of cynomolgus monkey CD3E with C-terminal His tag (mfCD3E-his) (cynomolgus monkey (Macaca fascicularis), UniProt Q95LI5 22-117); assay: SPR, Biacore X100; antibody captured by anti-human IgG (Fc), mfCD3E-his as analyte, 1:1 model
# T3 construct: Recombinant, expressed in HEK293 cells
# T3 sequence: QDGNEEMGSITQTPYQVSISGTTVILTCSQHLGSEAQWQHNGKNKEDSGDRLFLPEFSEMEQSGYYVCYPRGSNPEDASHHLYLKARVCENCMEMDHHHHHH
# Description: as §1
# [4] = biological target: T4, extracellular region of human CD123 subtype 1 with C-terminal His tag (hCD123-SP1-his) (human (Homo sapiens), UniProt P26951 19-305); assay: SPR, Biacore X100; antibody captured by anti-human IgG (Fc), hCD123-SP1-his as analyte, 1:1 model
# T4 construct: Recombinant, expressed in HEK293 cells
# T4 sequence: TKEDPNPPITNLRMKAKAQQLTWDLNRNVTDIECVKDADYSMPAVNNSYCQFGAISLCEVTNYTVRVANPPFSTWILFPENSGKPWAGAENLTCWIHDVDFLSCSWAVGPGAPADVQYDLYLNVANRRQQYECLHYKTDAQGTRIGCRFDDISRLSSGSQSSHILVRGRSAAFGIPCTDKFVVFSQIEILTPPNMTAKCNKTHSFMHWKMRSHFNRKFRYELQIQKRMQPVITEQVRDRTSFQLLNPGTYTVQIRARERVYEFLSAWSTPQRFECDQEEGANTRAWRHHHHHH
# Description: The affinity of anti-CD123 antibodies was determined by surface plasmon resonance using Biacore X100. Related reagents and consumables such as Amino Conjugation Kit (BR-1000-50), Human Antibody Capture Kit (BR-1008-39), CM5 Chip (BR100012) and 10×HBS-EP (BR100669) buffer with pH 7.4 were all purchased from GE healthcare. According to the instructions in the kits, 1-Ethyl-3-(3-dimethylaminopropyl) carbodiimide hydrochloride (EDC) and N-Hydroxysuccinimide (NHS) was used to activate the surface of the carboxylated CM5 chip, and the anti-human IgG (Fc) antibody (capture antibody) was diluted to 25 μg/mL with 10 mM, pH5.0 sodium acetate, followed by an injection with a flow rate at 10 μL/min to achieve a coupling volume of approximately 10,000 response units (RU). Following the injection of the capture antibody, 1 M ethanolamine was injected to block unreacted groups. […] The chip surface was regenerated by injecting 3M MgCl₂ solution at 10 μL/min for 30 s. Association rates (Kₒₙ) and dissociation rates (Koff) were calculated from association and dissociation sensorgrams fitted by a 1:1 binding model using Biacore X100 evaluation software version 2.0.1. The dissociation equilibrium constant (KD) was calculated as the ratio Koff/Kₒₙ.
# T2 sequence (P07766 other isoform, or with tags, fused parts or gaps limits assumed): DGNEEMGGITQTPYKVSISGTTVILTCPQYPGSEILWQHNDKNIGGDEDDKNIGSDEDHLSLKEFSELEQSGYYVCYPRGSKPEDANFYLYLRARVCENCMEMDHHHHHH
binder,measurement,setting,value
"bispecific antibody CD3E×CD123 (bispecific antibody, human IgG1, kappa, also called CD3×CD123 BsAb; CD3E×CD123 BsAb) heavy 1: EVQLVESGGGLVQPGGSLRLSCAASGFTFSNAWMHWVRQAPGKGLEWVGQIKDKSNNYATYYADAVKGRFTISRDDSKNSLYLQMNSLKTEDTAVYYCRYVHYGVRFFYTMDVWGQGTTVTVSSASTKGPSVFPLAPSSKSTSGGTAALGCLVKDYFPEPVTVSWNSGALTSGVHTFPAVLQSSGLYSLSSVVTVPSSSLGTQTYICNVNHKPSNTKVDKRVEPKSCDKTHTCPPCPAPEFEGGPSVFLFPPKPKDTLMISRTPEVTCVVVDVSHEDPEVKFNWYVDGVEVHNAKTKPREEQYNSTYRVVSVLTVLHQDWLNGKEYKCKVSNKALPASIEKTISKAKGQPREPQVYTLPPCREEMTKNQVSLWCLVKGFYPSDIAVEWESNGQPENNYKTTPPVLDSDGSFFLYSKLTVDKSRWQQGNVFSCSVMHEALHNHYTQKSLSLSPGK heavy 2: QVQLVQSGAEVKKPGASVKVSCKASGYTFTSYDVSWVRQAPGQRLEWMGWVYPVDGSTKFNEKFKGRVTLTADRSSSTAYMELSSLRSEDTAVYYCARLTYGDFGDAMDYWGQGTLVTVSSASTKGPSVFPLAPSSKSTSGGTAALGCLVKDYFPEPVTVSWNSGALTSGVHTFPAVLQSSGLYSLSSVVTVPSSSLGTQTYICNVNHKPSNTKVDKRVEPKSCDKTHTCPPCPAPEFEGGPSVFLFPPKPKDTLMISRTPEVTCVVVDVSHEDPEVKFNWYVDGVEVHNAKTKPREEQYNSTYRVVSVLTVLHQDWLNGKEYKCKVSNKALPASIEKTISKAKGQPREPQVCTLPPSREEMTKNQVSLSCAVKGFYPSDIAVEWESNGQPENNYKTTPPVLDSDGSFFLVSKLTVDKSRWQQGNVFSCSVMHEALHNHYTQKSLSLSPGK light: DIVMTQTPLSLSVTPGQPASISCKSSQSLVHSNDNTYLTWYLQKPGQSPQLLIYKVSNRFSGVPDRFSGSGSGTDFTLKISRVEAEDVGVYYCGQGTQYPFTFGQGTKLEIKRTVAAPSVFIFPPSDEQLKSGTASVVCLLNNFYPREAKVQWKVDNALQSGNSQESVTEQDSKDSTYSLSSTLTLSKADYEKHKVYACEVTHQGLSSPVTKSFNRGEC",Kd,[1],7.08 nM
same,Kd,[2],14.1 nM
same,koff,[2],0.000797 s⁻¹
same,kon,[2],56500 M⁻¹ s⁻¹
same,Kd,[3],11.5 nM
same,koff,[3],0.00157 s⁻¹
same,kon,[3],137000 M⁻¹ s⁻¹
same,Kd,[4],0.178 nM
same,koff,[4],4.02e-05 s⁻¹
same,kon,[4],225000 M⁻¹ s⁻¹
